Assay results as given in article PMC5365662, “A Short Double-Stapled Peptide Inhibits Respiratory Syncytial Virus Entry and Spreading” (Antimicrobial Agents and Chemotherapy, 2017).
Bridge positions count the residues as written; N and C are the ends. Square brackets hold non-standard residues; d marks the D form. Peptide text beside a SMILES is read from it. R8 = C=CCCCCCC[C@@](C)(N)C(=O)O; R5 = C=CCCC[C@@](C)(N)C(=O)O; S5 = C=CCCC[C@](C)(N)C(=O)O

Tests used:
circular dichroism = conditions: 10 mM phosphate; pH 7.5; 25 °C; 50 uM
[1] = tested on: rHRSV-mCherry in HEp-2 cells; experiment: rHRSV-mCherry inhibition assay; assay type: cell-based, human respiratory syncytial virus; conditions: Table 3 (Ala scan); HEp-2 cells, rHRSV-mCherry MOI 0.2, 2-fold serial dilutions (11 dilutions), duplicate; ± SD of fit
Protocol: To measure the inhibitory activity of the peptide, the mCherry red fluorescence was quantified 48 h postinfection (p.i.).
Viral replication was quantified by measuring the mCherry fluorescence at 48 h p.i. and normalized based on the fluorescence of infected and untreated cells. (B) Cytotoxicity assay. HEp-2 cells were incubated in the presence of serial dilutions of peptides, and cell survival was quantified using the CellTiter-Glo Luminescent cell viability assay 24 h after the addition of the peptides. The signal was normalized based on the luminescence obtained for untreated cells. Error bars are standard deviations from duplicates.
HEp-2 cells were seeded at 5 × 10^4 cells per well in a 96-well plate the day before the infection. Peptides were 2-fold serially diluted in dimethyl sulfoxide (DMSO) (11 dilutions) and then further diluted in EMEM without phenol red and preincubated for 15 to 20 min with rHRSV-mCherry ([24]) at a final dilution with an MOI of 0.2 ([24]). The cells were incubated with the virus-peptide mixtures for a period of 1.5 to 2 h. The medium was then replaced by EMEM without phenol red containing 2% fetal bovine serum and the same concentration of peptide as the one that was used during the infection step. Plates were incubated 48 h at 37°C, and the mCherry fluorescence was measured using a spectrofluorometer (Tecan infinite M200PRO) with excitation and emission wavelengths of 580 and 620 nm, respectively. Relative fluorescence was normalized by the fluorescence of nontreated infected cells. Noninfected HEp-2 cells were used as standards for fluorescence background levels. Each experiment was performed in duplicate and repeated at least twice. The resulting inhibition curves were fitted in Igor Pro as described above.

Structure (SMILES)	helicity (circular dichroism) [%]	EC50 [1] [µM]
CC[C@H](C)[C@H](NC(=O)[C@H](Cc1ccccc1)NC(=O)[C@]1(C)CCCC=CCCC[C@](C)(NC(=O)[C@@H](NC(=O)[C@H](CCCCN)NC(=O)[C@H](CCC(=O)O)NC(C)=O)[C@@H](C)CC)C(=O)N[C@@H](CCC(N)=O)C(=O)N[C@@H](CO)C(=O)N[C@@H](CC(C)C)C(=O)N1)C(=O)N[C@@H](CCCNC(=N)N)C(=O)N[C@]1(C)CCCCCCC=CCCC[C@@](C)(C(=O)N[C@H](C(N)=O)C(C)C)NC(=O)[C@H](Cc2c[nH]cn2)NC(=O)[C@H](CC(C)C)NC(=O)[C@H](CC(C)C)NC(=O)[C@H](CCC(=O)O)NC(=O)[C@H](CC(=O)O)NC(=O)[C@H](CO)NC1=O [Peptide 4bf] (Ac-EKI[S5]QSL[S5]FIR[R8]SDELLH[S5]V-NH2; staple 4-8, 12-19)	88.9	
CC[C@H](C)[C@H](NC(=O)[C@H](CCCCN)NC(=O)[C@H](CCC(=O)O)NC(C)=O)C(=O)N[C@@]1(C)CCCC=CCCC[C@@](C)(C(=O)N[C@@H](Cc2ccccc2)C(=O)N[C@H](C(=O)N[C@@]2(C)CCCC=CCCC[C@@](C)(C(=O)N[C@@H](CC(C)C)C(=O)N[C@@H](CC(C)C)C(=O)N[C@@H](Cc3c[nH]cn3)C(=O)N[C@@H](CC(N)=O)C(=O)N[C@H](C(N)=O)C(C)C)NC(=O)[C@H](C)NC(=O)[C@H](CO)NC(=O)[C@H](CCCCN)NC2=O)[C@@H](C)CC)NC(=O)[C@H](CC(C)C)NC(=O)[C@H](CO)NC(=O)[C@H](CCC(N)=O)NC1=O [Peptide D510A] (Ac-EKI[S5]QSL[S5]FI[S5]KSA[S5]LLHNV-NH2; staple 4-8, 11-15)	44	1.1 ± 0.08
CC[C@H](C)[C@H](NC(=O)[C@H](CCCCN)NC(=O)[C@H](C)NC(C)=O)C(=O)N[C@@]1(C)CCCC=CCCC[C@@](C)(C(=O)N[C@@H](Cc2ccccc2)C(=O)N[C@H](C(=O)N[C@@]2(C)CCCC=CCCC[C@@](C)(C(=O)N[C@@H](CC(C)C)C(=O)N[C@@H](CC(C)C)C(=O)N[C@@H](Cc3c[nH]cn3)C(=O)N[C@@H](CC(N)=O)C(=O)N[C@H](C(N)=O)C(C)C)NC(=O)[C@H](CC(=O)O)NC(=O)[C@H](CO)NC(=O)[C@H](CCCCN)NC2=O)[C@@H](C)CC)NC(=O)[C@H](CC(C)C)NC(=O)[C@H](CO)NC(=O)[C@H](CCC(N)=O)NC1=O [Peptide E497A] (Ac-AKI[S5]QSL[S5]FI[S5]KSD[S5]LLHNV-NH2; staple 4-8, 11-15)	38	1.16 ± 0.08
CC[C@H](C)[C@@H]1NC(=O)[C@H](Cc2ccccc2)NC(=O)[C@@](C)(NC(=O)[C@H](CC(C)C)NC(=O)[C@H](CO)NC(=O)[C@]2(C)CCCC=CCCC[C@@](C)(NC(=O)[C@H](CCC(=O)O)NC(C)=O)C(=O)N[C@@H]([C@@H](C)CC)C(=O)N[C@@H](CC(N)=O)C(=O)N2)CCCC=CCCC[C@@](C)(C(=O)N[C@@H](CO)C(=O)N[C@@H](CC(=O)O)C(=O)N[C@@H](C)C(=O)N[C@@H](CC(C)C)C(=O)N[C@@H](CC(C)C)C(=O)N[C@@H](Cc2c[nH]cn2)C(=O)N[C@@H](CC(N)=O)C(=O)N[C@H](C(N)=O)C(C)C)NC(=O)[C@H](CCCNC(=N)N)NC1=O [Peptide E511A] (Ac-E[R5]IN[S5]SL[S5]FIR[S5]SDALLHNV-NH2; staple 2-5, 8-12)	73	1 ± 0.03
CC[C@H](C)[C@H](NC(=O)[C@H](C)NC(=O)[C@]1(C)CCCC=CCCC[C@](C)(NC(=O)[C@@H](NC(=O)[C@H](CCCCN)NC(=O)[C@H](CCC(=O)O)NC(C)=O)[C@@H](C)CC)C(=O)N[C@@H](CCC(N)=O)C(=O)N[C@@H](CO)C(=O)N[C@@H](CC(C)C)C(=O)N1)C(=O)N[C@@]1(C)CCCC=CCCC[C@@](C)(C(=O)N[C@@H](CC(C)C)C(=O)N[C@@H](CC(C)C)C(=O)N[C@@H](Cc2c[nH]cn2)C(=O)N[C@@H](CC(N)=O)C(=O)N[C@H](C(N)=O)C(C)C)NC(=O)[C@H](CC(=O)O)NC(=O)[C@H](CO)NC(=O)[C@H](CCCCN)NC1=O [Peptide F505A] (Ac-EKI[S5]QSL[S5]AI[S5]KSD[S5]LLHNV-NH2; staple 4-8, 11-15)	64	1.39 ± 0.1
CC[C@H](C)[C@H](NC(=O)[C@H](CCCCN)NC(=O)[C@H](CCC(=O)O)NC(C)=O)C(=O)N[C@@]1(C)CCCC=CCCC[C@@](C)(C(=O)N[C@@H](Cc2ccccc2)C(=O)N[C@H](C(=O)N[C@@]2(C)CCCC=CCCC[C@@](C)(C(=O)N[C@@H](CC(C)C)C(=O)N[C@@H](CC(C)C)C(=O)N[C@@H](C)C(=O)N[C@@H](CC(N)=O)C(=O)N[C@H](C(N)=O)C(C)C)NC(=O)[C@H](CC(=O)O)NC(=O)[C@H](CO)NC(=O)[C@H](CCCCN)NC2=O)[C@@H](C)CC)NC(=O)[C@H](CC(C)C)NC(=O)[C@H](CO)NC(=O)[C@H](CCC(N)=O)NC1=O [Peptide H514A] (Ac-EKI[S5]QSL[S5]FI[S5]KSD[S5]LLANV-NH2; staple 4-8, 11-15)	55	0.52 ± 0.07
CC[C@H](C)[C@H](NC(=O)[C@H](Cc1ccccc1)NC(=O)[C@]1(C)CCCC=CCCC[C@](C)(NC(=O)[C@H](C)NC(=O)[C@H](CCCCN)NC(=O)[C@H](CCC(=O)O)NC(C)=O)C(=O)N[C@@H](CCC(N)=O)C(=O)N[C@@H](CO)C(=O)N[C@@H](CC(C)C)C(=O)N1)C(=O)N[C@@]1(C)CCCC=CCCC[C@@](C)(C(=O)N[C@@H](CC(C)C)C(=O)N[C@@H](CC(C)C)C(=O)N[C@@H](Cc2c[nH]cn2)C(=O)N[C@@H](CC(N)=O)C(=O)N[C@H](C(N)=O)C(C)C)NC(=O)[C@H](CC(=O)O)NC(=O)[C@H](CO)NC(=O)[C@H](CCCCN)NC1=O [Peptide I499A] (Ac-EKA[S5]QSL[S5]FI[S5]KSD[S5]LLHNV-NH2; staple 4-8, 11-15)	24	1.3 ± 0.89
CC[C@H](C)[C@H](NC(=O)[C@H](C)NC(=O)[C@H](CCC(=O)O)NC(C)=O)C(=O)N[C@@]1(C)CCCC=CCCC[C@@](C)(C(=O)N[C@@H](Cc2ccccc2)C(=O)N[C@H](C(=O)N[C@@]2(C)CCCC=CCCC[C@@](C)(C(=O)N[C@@H](CC(C)C)C(=O)N[C@@H](CC(C)C)C(=O)N[C@@H](Cc3c[nH]cn3)C(=O)N[C@@H](CC(N)=O)C(=O)N[C@H](C(N)=O)C(C)C)NC(=O)[C@H](CC(=O)O)NC(=O)[C@H](CO)NC(=O)[C@H](CCCCN)NC2=O)[C@@H](C)CC)NC(=O)[C@H](CC(C)C)NC(=O)[C@H](CO)NC(=O)[C@H](CCC(N)=O)NC1=O [Peptide K498A] (Ac-EAI[S5]QSL[S5]FI[S5]KSD[S5]LLHNV-NH2; staple 4-8, 11-15)	42	0.6 ± 0.02
CC[C@H](C)[C@H](NC(=O)[C@H](CCCCN)NC(=O)[C@H](CCC(=O)O)NC(C)=O)C(=O)N[C@@]1(C)CCCC=CCCC[C@@](C)(C(=O)N[C@@H](Cc2ccccc2)C(=O)N[C@H](C(=O)N[C@@]2(C)CCCC=CCCC[C@@](C)(C(=O)N[C@@H](CC(C)C)C(=O)N[C@@H](CC(C)C)C(=O)N[C@@H](Cc3c[nH]cn3)C(=O)N[C@@H](CC(N)=O)C(=O)N[C@H](C(N)=O)C(C)C)NC(=O)[C@H](CC(=O)O)NC(=O)[C@H](CO)NC(=O)[C@H](CCCCN)NC2=O)[C@@H](C)CC)NC(=O)[C@H](C)NC(=O)[C@H](CO)NC(=O)[C@H](CCC(N)=O)NC1=O [Peptide L503A] (Ac-EKI[S5]QSA[S5]FI[S5]KSD[S5]LLHNV-NH2; staple 4-8, 11-15)	38	0.95 ± 0.53
CC[C@H](C)[C@H](NC(=O)[C@H](CCCCN)NC(=O)[C@H](CCC(=O)O)NC(C)=O)C(=O)N[C@@]1(C)CCCC=CCCC[C@@](C)(C(=O)N[C@@H](Cc2ccccc2)C(=O)N[C@H](C(=O)N[C@@]2(C)CCCC=CCCC[C@@](C)(C(=O)N[C@@H](C)C(=O)N[C@@H](CC(C)C)C(=O)N[C@@H](Cc3c[nH]cn3)C(=O)N[C@@H](CC(N)=O)C(=O)N[C@H](C(N)=O)C(C)C)NC(=O)[C@H](CC(=O)O)NC(=O)[C@H](CO)NC(=O)[C@H](CCCCN)NC2=O)[C@@H](C)CC)NC(=O)[C@H](CC(C)C)NC(=O)[C@H](CO)NC(=O)[C@H](CCC(N)=O)NC1=O [Peptide L512A] (Ac-EKI[S5]QSL[S5]FI[S5]KSD[S5]ALHNV-NH2; staple 4-8, 11-15)	45	0.88 ± 0.06
CC[C@H](C)[C@H](NC(=O)[C@H](CCCCN)NC(=O)[C@H](CCC(=O)O)NC(C)=O)C(=O)N[C@@H](C)C(=O)N[C@@H](CCC(N)=O)C(=O)N[C@@H](CO)C(=O)N[C@@H](CC(C)C)C(=O)N[C@@]1(C)CCCC=CCCC[C@@](C)(C(=O)N[C@@H](CO)C(=O)N[C@@H](CC(=O)O)C(=O)N[C@@]2(C)CCCC=CCCC[C@@](C)(C(=O)N[C@H](C(N)=O)C(C)C)NC(=O)[C@H](Cc3c[nH]cn3)NC(=O)[C@H](CC(C)C)NC(=O)[C@H](CC(C)C)NC2=O)NC(=O)[C@H](CCCNC(=N)N)NC(=O)[C@H]([C@@H](C)CC)NC(=O)[C@H](Cc2ccccc2)NC1=O [Peptide N500A] (Ac-EKIAQSL[S5]FIR[S5]SD[S5]LLH[S5]V-NH2; staple 8-12, 15-19)	60	20.4 ± 2.4
